Laboratory results as given in US20210101944A1 (WEST CHINA HOSPITAL SICHUAN UNIVERSITY, published 2021).
Positions count from the first letter of the chain named.

Assays:
[1] = target: T1, death receptor fusion protein DR4-Fc (UniProt O00220 24-239, limits assumed); experiment: BLI, DR4-Fc on protein A-coated probe; IgBD-TRAIL01 to DR4-Fc
T1 construct: Captured on a protein A-coated BLI probe; also called TRAIL R1; not shown: Fc part

[2] = target: T2, death receptor fusion protein DR5-Fc (UniProt O14763 56-182, limits assumed); experiment: BLI, DR5-Fc on protein A-coated probe; IgBD-TRAIL01 to DR5-Fc
T2 construct: Captured on a protein A-coated BLI probe; also called TRAIL R2; not shown: Fc part

Human IgG = target: T3, Human IgG (human); experiment: ELISA, coated hIgG, pH 7.4, detection with biotin-labeled anti-TRAIL antibody and HRP-streptavidin
T3 construct: also called hIgG
Description: 1) ELISA Human IgG (hIgG) or mouse IgG (mIgG) was coated in a well plate for ELISA. […] After incubating at 37° C. for 1 h, excess protein was removed.

[3] = target: T2, death receptor fusion protein DR5-Fc; experiment: Biolayer interferometry, DR5-Fc captured on a protein A probe, IgBD-TRAIL01 at 10-500 nM
Description: (§1) The binding constant Ka and the dissociation constant Kd were determined, and then the affinity KD was calculated according to the formula (KD=Kd/Ka).

[4] = target: T1, death receptor fusion protein DR4-Fc; experiment: BLI, DR4-Fc on protein A-coated probe (method of Example 3)
Description: as §1

[5] = target: T2, death receptor fusion protein DR5-Fc; experiment: BLI, DR5-Fc on protein A-coated probe (method of Example 3)
Description: as §1

[6] = target: T2, death receptor fusion protein DR5-Fc; experiment: BLI, DR5-Fc on protein A-coated probe; TRAIL01 to DR5-Fc
Description: as §1

[7] = target: T1, death receptor fusion protein DR4-Fc; experiment: BLI, DR4-Fc on protein A-coated probe; TRAIL01 to DR4-Fc
Description: as §1

[8] = target: T2, death receptor fusion protein DR5-Fc; experiment: Biolayer interferometry, DR5-Fc captured on a protein A probe, TRAIL01 at 5-250 nM
Description: as §1

T2 sequence (O14763 56-182 limits assumed): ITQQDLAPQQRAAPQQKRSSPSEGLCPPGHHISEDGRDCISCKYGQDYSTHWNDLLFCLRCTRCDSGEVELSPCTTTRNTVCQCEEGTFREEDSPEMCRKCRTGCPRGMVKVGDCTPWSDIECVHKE
T1 sequence (O00220 24-239 limits assumed): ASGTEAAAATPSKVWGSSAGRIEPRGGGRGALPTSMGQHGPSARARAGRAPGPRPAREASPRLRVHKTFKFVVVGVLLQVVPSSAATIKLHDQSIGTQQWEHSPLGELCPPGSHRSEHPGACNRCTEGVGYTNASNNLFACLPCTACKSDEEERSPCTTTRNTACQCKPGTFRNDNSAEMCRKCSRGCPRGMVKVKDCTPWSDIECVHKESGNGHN

B1: fusion protein IgBD-TRAIL01 (other)
chain: TTYKLVINGKTLKGETTTKAVDAETAAAAFAQYARRNGVDGVWTYDDATKTFTVTEGGGGSGGGGSGGGGSVRERGPQRVAAHITGTRGRSNTLSSPNSKNEKALGRKINSWESSRSGHSFLSNLHLRNGELVIQEKGFYYIYSQTYFRFQEEIKENTKNDKQMVQYIYKYTSYPDPILLMKSARNSCWSKDAEYGLYSIYQGGLFELKKDDRIFVSVTNEHLIDMDHEASFFGAFLVG
notes: also called IgBD-TRAIL1
Q: Which Kd [1] does the source give for B1 here?
A: 4.33 nM

Q: What about the Kd [2] of the same binder?
A: 1.43 nM

Q: What about the “EC50 (read off the curve)” value (Human IgG) of the same binder?
A: ~0.4 nM

Q: And the Kd [3]?
A: 1.5 nM

B2: fusion protein IgBD-TRAIL02 (other)
chain: B1 chain with A27E, A28K, A31K, R35N, R36D
notes: No tag is stated
Q: B2 was tested. Which Kd [4] did it give?
A: 3.96 nM

Q: And the Kd [5]?
A: 1.79 nM

B3: TRAIL01 (ligand)
chain: VRERGPQRVAAHITGTRGRSNTLSSPNSKNEKALGRKINSWESSRSGHSFLSNLHLRNGELVIQEKGFYYIYSQTYFRFQEEIKENTKNDKQMVQYIYKYTSYPDPILLMKSARNSCWSKDAEYGLYSIYQGGLFELKKDDRIFVSVTNEHLIDMDHEASFFGAFLVG
notes: Control protein without IgBD; also called TRAIL1
Q: What does the source list for B3?
A: Kd [6]: 1.5 nM; Kd [7]: 4 nM; Kd [8]: 1.43 nM
